Tests used:
Experiment in all cases: flow cytometry on 293T cells overexpressing EphA1-A8
[1] = molecular target: T1, EphA5 overexpressed on 293T cells (UniProt P54756 25-1037, limits assumed)
T1 construct: whole, on cells
Description: (§1) To detect the binding specificity of scFv, 293T cells were transformed with EphA1-A8 plasmids individually for overexpression of different EphA molecules. The cell line was freshly prepared and washed with FACS buffer (2% FBS in PBS). The cells were seeded at 1×10⁵ cells/well into a 96-well Ubottom plate and incubated with scFv for 1 h at 4° C. After the plate was washed with FACS buffer, the anti-hemagglutinin (HA) antibody was added for scFv binding detection (scFv was fused with a HA tag) and subsequently developed using an FITC-conjugated secondary antibody. Finally, the cell binding signal was analyzed using a FACS can flow cytometer.

[2] = molecular target: T2, EphA7 overexpressed on 293T cells (UniProt Q15375 28-998, limits assumed)
T2 construct: whole, on cells
Description: as §1

[3] = molecular target: T3, EphA6 overexpressed on 293T cells (UniProt Q9UF33 23-1036, limits assumed)
T3 construct: whole, on cells
T3 sequence (looked up): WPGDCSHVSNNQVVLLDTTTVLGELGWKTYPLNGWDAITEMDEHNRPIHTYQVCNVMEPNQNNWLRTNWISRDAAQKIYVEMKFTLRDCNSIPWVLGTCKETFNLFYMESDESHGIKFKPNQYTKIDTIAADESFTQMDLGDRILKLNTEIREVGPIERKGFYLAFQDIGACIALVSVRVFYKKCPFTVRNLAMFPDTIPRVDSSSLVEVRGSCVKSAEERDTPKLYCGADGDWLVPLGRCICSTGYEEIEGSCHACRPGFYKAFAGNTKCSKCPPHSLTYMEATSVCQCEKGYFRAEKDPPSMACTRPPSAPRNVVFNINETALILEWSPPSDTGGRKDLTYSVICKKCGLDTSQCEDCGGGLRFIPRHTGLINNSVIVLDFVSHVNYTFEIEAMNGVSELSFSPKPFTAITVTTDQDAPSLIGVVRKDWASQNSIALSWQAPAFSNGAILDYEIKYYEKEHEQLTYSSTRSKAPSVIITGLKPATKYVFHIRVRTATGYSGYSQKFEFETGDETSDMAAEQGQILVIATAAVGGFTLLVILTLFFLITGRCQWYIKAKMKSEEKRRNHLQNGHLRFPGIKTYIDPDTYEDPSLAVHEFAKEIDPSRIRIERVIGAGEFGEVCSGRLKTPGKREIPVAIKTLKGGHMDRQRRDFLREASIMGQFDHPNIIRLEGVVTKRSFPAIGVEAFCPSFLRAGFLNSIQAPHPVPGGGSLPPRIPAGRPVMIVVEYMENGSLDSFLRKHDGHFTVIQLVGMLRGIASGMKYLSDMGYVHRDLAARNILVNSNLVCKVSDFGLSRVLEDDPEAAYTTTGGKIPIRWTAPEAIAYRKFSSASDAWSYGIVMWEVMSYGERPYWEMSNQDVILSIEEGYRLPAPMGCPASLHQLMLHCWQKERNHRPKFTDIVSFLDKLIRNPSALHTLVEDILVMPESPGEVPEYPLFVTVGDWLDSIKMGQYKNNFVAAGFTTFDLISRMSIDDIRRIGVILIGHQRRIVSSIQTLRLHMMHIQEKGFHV
Description: as §1

[4] = molecular target: T4, EphA8 overexpressed on 293T cells (UniProt P29322 28-1005, limits assumed)
T4 construct: whole, on cells
T4 sequence (looked up): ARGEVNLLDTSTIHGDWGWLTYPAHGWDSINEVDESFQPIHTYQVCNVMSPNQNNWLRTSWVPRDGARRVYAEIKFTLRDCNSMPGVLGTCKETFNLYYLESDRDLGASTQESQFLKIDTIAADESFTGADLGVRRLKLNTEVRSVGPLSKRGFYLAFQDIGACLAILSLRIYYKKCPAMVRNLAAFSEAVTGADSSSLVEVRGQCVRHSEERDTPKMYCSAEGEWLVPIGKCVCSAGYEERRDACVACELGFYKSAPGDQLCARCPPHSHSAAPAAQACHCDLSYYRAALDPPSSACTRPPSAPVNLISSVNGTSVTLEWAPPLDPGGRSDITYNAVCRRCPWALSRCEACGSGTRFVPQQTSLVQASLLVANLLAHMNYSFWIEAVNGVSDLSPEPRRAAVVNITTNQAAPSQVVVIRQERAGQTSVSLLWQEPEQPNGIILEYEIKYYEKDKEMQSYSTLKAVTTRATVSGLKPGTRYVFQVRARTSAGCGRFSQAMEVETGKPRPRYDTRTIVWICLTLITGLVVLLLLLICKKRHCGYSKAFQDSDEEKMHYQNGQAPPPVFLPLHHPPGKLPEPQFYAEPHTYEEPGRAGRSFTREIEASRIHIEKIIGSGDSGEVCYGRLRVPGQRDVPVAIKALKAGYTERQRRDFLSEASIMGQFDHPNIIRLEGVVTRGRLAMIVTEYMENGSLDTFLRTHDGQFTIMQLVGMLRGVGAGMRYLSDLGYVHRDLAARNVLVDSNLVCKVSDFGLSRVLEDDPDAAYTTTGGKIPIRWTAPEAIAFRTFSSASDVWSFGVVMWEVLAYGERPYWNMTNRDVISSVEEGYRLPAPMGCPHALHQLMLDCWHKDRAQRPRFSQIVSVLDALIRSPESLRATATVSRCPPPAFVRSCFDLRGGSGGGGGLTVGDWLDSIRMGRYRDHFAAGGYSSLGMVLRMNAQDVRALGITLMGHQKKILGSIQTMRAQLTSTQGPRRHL
Description: as §1

T1 sequence (P54756 25-1037 limits assumed): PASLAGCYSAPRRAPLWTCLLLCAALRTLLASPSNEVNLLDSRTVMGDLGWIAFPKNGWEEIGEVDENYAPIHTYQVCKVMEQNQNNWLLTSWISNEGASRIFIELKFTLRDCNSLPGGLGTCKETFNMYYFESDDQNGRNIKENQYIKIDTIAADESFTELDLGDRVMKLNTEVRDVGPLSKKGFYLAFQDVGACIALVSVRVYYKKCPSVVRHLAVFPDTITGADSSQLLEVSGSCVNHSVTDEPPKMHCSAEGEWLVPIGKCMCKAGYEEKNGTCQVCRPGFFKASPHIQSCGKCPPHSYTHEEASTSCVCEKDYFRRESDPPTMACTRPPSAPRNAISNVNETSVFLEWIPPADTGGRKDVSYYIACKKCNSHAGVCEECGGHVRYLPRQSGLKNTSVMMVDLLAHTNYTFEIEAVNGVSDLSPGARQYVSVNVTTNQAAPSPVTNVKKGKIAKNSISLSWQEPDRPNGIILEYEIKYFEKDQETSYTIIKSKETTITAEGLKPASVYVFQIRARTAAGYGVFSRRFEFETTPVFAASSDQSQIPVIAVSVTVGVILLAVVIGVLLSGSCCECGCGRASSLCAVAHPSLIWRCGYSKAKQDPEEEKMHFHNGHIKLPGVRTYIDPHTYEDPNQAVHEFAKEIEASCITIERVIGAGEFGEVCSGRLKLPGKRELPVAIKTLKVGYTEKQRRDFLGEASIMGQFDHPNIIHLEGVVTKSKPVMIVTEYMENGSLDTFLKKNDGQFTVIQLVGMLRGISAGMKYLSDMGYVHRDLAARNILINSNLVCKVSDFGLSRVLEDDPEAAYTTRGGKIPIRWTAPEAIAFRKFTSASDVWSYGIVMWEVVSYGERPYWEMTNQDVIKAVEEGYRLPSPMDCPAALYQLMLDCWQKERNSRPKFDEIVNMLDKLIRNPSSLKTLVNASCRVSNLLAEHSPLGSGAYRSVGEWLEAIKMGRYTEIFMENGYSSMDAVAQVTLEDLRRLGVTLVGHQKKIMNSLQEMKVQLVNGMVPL
T2 sequence (Q15375 28-998 limits assumed): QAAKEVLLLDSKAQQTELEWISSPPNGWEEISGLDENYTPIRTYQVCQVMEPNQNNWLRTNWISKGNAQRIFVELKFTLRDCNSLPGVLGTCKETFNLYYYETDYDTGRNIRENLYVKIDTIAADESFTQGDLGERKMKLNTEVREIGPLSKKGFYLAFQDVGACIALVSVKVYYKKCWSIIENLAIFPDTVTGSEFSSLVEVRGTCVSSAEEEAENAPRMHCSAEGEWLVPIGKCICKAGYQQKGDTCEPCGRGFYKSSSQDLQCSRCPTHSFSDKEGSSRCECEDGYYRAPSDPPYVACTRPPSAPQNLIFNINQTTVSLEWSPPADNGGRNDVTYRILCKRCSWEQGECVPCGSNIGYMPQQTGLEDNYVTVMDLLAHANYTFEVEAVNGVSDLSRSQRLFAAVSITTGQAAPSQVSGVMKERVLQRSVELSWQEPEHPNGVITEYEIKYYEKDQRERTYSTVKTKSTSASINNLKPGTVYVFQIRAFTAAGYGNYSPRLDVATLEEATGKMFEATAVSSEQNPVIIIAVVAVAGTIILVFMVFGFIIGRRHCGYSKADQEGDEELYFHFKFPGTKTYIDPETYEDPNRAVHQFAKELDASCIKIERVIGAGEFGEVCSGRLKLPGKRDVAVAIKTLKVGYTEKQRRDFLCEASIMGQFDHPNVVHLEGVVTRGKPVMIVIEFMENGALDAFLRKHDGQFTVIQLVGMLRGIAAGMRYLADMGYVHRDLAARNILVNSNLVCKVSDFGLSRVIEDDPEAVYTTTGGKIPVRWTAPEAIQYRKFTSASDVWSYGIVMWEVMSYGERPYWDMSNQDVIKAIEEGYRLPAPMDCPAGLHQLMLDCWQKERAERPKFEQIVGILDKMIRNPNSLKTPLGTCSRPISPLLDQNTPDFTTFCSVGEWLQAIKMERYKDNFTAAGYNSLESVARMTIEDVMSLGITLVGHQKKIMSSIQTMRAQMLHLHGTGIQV

binding result [1]: no binding
binding result [2]: no binding
binding result [3]: no binding
binding result [4]: no binding
B1: Humanized scFv hSD5 (scFv)
scFv: LTQPPSVSVSPGQTVRITCSGSSGSYGWYQQKSPGQAPVTLIYDNDKRPSGIPERFSGSSSGSTSTLTISGVQAEDEADYYCGSADSSTYVGMFGGGTKLTVLGQSSRSSQVQLVESGGGLVQPGGSLRLSCAASGFTFSDYGMGWVRQAPGKGLEWVAGISAAGSFTPYGAAVKGRFTISRDNSKNTVYLQMNSLRAEDTAVYYCARIPSGYRAGEIYTWGQGTLVTVSS
notes: also called hSD5 scFv; Humanized scFv hSDS
